Data: patent publication US20230002480A1

Key:
Assay in all cases: cell-based or functional assay
[1] = biological target: HIV-1 Env of pseudovirus 6540.v4.c1 (clade AC) (HIV-1)
[2] = biological target: HIV-1 Env of pseudovirus 9004SS_A3_4 (HIV-1)
[3] = biological target: HIV-1 Env of pseudovirus 6952.v1.c20 (clade CD) (HIV-1)
[4] = biological target: HIV-1 Env of pseudovirus HIV-001428-2.42 (HIV-1)
[5] = biological target: HIV-1 Env of pseudovirus 89-F1_2_25 (clade CD) (HIV-1)
[6] = biological target: HIV-1 Env of pseudovirus 3817.v2.c59 (clade CD) (HIV-1)
[7] = biological target: HIV-1 Env of pseudovirus X2131_C1_B5 (clade G) (HIV-1)
[8] = biological target: HIV-1 Env of pseudovirus X1632_S2_B10 (clade G) (HIV-1)
[9] = biological target: HIV-1 Env of pseudovirus 3016.v5.c45 (clade D) (HIV-1)
[10] = biological target: HIV-1 Env of pseudovirus 6041.v3.c23 (clade AC) (HIV-1)
[11] = biological target: HIV-1 Env of pseudovirus 231966.c02 (clade D) (HIV-1)
[12] = biological target: HIV-1 Env of pseudovirus X2088_c9 (clade G) (HIV-1)
[13] = biological target: HIV-1 Env of pseudovirus 231965.c01 (clade D) (HIV-1)
[14] = biological target: HIV-1 Env of pseudovirus 6545.v4.c1 (clade AC) (HIV-1)
[15] = biological target: HIV-1 Env of pseudovirus CNE20 (HIV-1)
[16] = biological target: HIV-1 Env of pseudovirus P1981_C5_3 (clade G) (HIV-1)
[17] = biological target: HIV-1 Env of pseudovirus 0815.v3.c3 (clade ACD) (HIV-1)
[18] = biological target: HIV-1 Env of pseudovirus 3103.v3.c10 (clade ACD) (HIV-1)
[19] = biological target: HIV-1 Env of pseudovirus T257-31 (HIV-1)
[20] = biological target: HIV-1 Env of pseudovirus R1166.c01 (clade CRF01_AE) (HIV-1)
[21] = biological target: HIV-1 Env of pseudovirus 6811.v7.c18 (clade CD) (HIV-1)
[22] = biological target: HIV-1 Env of pseudovirus A07412M1.vrc12 (clade D) (HIV-1)
[23] = biological target: HIV-1 Env of pseudovirus 6240_08_TA5_4622 (HIV-1)
[24] = biological target: HIV-1 Env of pseudovirus 6480.v4.c25 (clade CD) (HIV-1)
[25] = biological target: HIV-1 Env of pseudovirus 3301.v1.c24 (clade AC) (HIV-1)
[26] = biological target: HIV-1 Env of pseudovirus P0402_c2_11 (clade G) (HIV-1)
[27] = biological target: HIV-1 Env of pseudovirus CNE30 (clade BC) (HIV-1)
[28] = biological target: HIV-1 Env of pseudovirus HIV-16055-2.3 (clade C) (HIV-1)
[29] = biological target: HIV-1 Env of pseudovirus 246F C1G (clade C (T/F)) (HIV-1)
[30] = biological target: HIV-1 Env of pseudovirus C4118.c09 (HIV-1)
[31] = biological target: HIV-1 Env of pseudovirus 3415.v1.c1 (HIV-1)
[32] = biological target: HIV-1 Env of pseudovirus BF1266.431a (clade C (T/F)) (HIV-1)
[33] = biological target: HIV-1 Env pseudovirus BJOX015000.11.5 (HIV-1)
[34] = biological target: HIV-1 Env pseudovirus 3365.v2.c2 (HIV-1)

## 10E8 (antibody)
[1]
  IC50, titer in TZM.bl cells: 1.9 µg/mL
  IC80, titer in TZM.bl cells: 10 µg/mL
[2]
  IC50, titer in TZM.bl cells: 1.16 µg/mL
  IC80, titer in TZM.bl cells: 6.76 µg/mL
[3]
  IC50, titer in TZM.bl cells: 0.343 µg/mL
  IC80, titer in TZM.bl cells: 1.91 µg/mL
[4]
  IC50, titer in TZM.bl cells: 0.809 µg/mL
  IC80, titer in TZM.bl cells: 7.3 µg/mL
[5]
  IC50, titer in TZM.bl cells: 1.11 µg/mL
  IC80, titer in TZM.bl cells: 10 µg/mL
[6]
  IC50, titer in TZM.bl cells: 1.18 µg/mL
  IC80, titer in TZM.bl cells: 5.98 µg/mL
[7]
  IC50, titer in TZM.bl cells: 0.189 µg/mL
  IC80, titer in TZM.bl cells: 0.974 µg/mL
[8]
  IC50, titer in TZM.bl cells: 1.98 µg/mL
  IC80, titer in TZM.bl cells: 9.68 µg/mL
[9]
  IC50, titer in TZM.bl cells: 0.476 µg/mL
  IC80, titer in TZM.bl cells: 4.39 µg/mL
[10]
  IC50, titer in TZM.bl cells: 2.33 µg/mL
  IC80, titer in TZM.bl cells: 9.77 µg/mL
[11]
  IC50, titer in TZM.bl cells: 0.191 µg/mL
  IC80, titer in TZM.bl cells: 3.13 µg/mL
[12]
  IC50, titer in TZM.bl cells: > 10 µg/mL
  IC80, titer in TZM.bl cells: > 10 µg/mL
[13]
  IC50, titer in TZM.bl cells: > 10 µg/mL
  IC80, titer in TZM.bl cells: > 10 µg/mL
[14]
  IC50, titer in TZM.bl cells: 1.78 µg/mL
  IC80, titer in TZM.bl cells: 8.23 µg/mL
[15]
  IC50, titer in TZM.bl cells: 1.25 µg/mL
  IC80, titer in TZM.bl cells: 6.58 µg/mL
[16]
  IC50, titer in TZM.bl cells: 0.057 µg/mL
  IC80, titer in TZM.bl cells: 0.285 µg/mL
[17]
  IC50, titer in TZM.bl cells: 0.332 µg/mL
  IC80, titer in TZM.bl cells: 2.87 µg/mL
[18]
  IC50, titer in TZM.bl cells: > 10 µg/mL
  IC80, titer in TZM.bl cells: > 10 µg/mL
[19]
  IC50, titer in TZM.bl cells: 0.88 µg/mL
  IC80, titer in TZM.bl cells: 5.78 µg/mL
[20]
  IC50, titer in TZM.bl cells: 0.274 µg/mL
  IC80, titer in TZM.bl cells: 2.61 µg/mL
[21]
  IC50, titer in TZM.bl cells: 7.54 µg/mL
  IC80, titer in TZM.bl cells: > 10 µg/mL
[22]
  IC50, titer in TZM.bl cells: 0.576 µg/mL
  IC80, titer in TZM.bl cells: 6.05 µg/mL
[23]
  IC50, titer in TZM.bl cells: 0.756 µg/mL
  IC80, titer in TZM.bl cells: 5.59 µg/mL
[24]
  IC50, titer in TZM.bl cells: 8.08 µg/mL
  IC80, titer in TZM.bl cells: > 10 µg/mL
[25]
  IC50, titer in TZM.bl cells: 4.63 µg/mL
  IC80, titer in TZM.bl cells: > 10 µg/mL
[26]
  IC50, titer in TZM.bl cells: 0.172 µg/mL
  IC80, titer in TZM.bl cells: 3.29 µg/mL

## N49P7.2 (antibody)
[2]
  IC50: 0.266 µg/mL
  IC80: 1.62 µg/mL
  MPI: 100
[27]
  IC50: 0.362 µg/mL
  IC80: 1.2 µg/mL
  MPI: 100
[28]
  IC50: 0.204 µg/mL
  IC80: 0.721 µg/mL
  MPI: 100
[29]
  IC50: 0.049 µg/mL
  IC80: 0.192 µg/mL
  MPI: 100
[30]
  IC50: 0.079 µg/mL
  IC80: 0.292 µg/mL
  MPI: 100
[31]
  IC50: 0.381 µg/mL
  IC80: 1.58 µg/mL
  MPI: 100
[19]
  IC50: 0.627 µg/mL
  IC80: 1.79 µg/mL
  MPI: 100
[32]
  IC50: 0.029 µg/mL
  IC80: 0.159 µg/mL
  MPI: 100

## N49P9 (antibody)
[4]
  IC50: 0.022 µg/mL
  IC80: 0.106 µg/mL
  MPI: 99
[33]
  IC50: 0.089 µg/mL
  IC80: 0.375 µg/mL
  MPI: 100
[34]
  IC50: 0.059 µg/mL
  IC80: 0.198 µg/mL
  MPI: 100
[15]
  IC50: 0.465 µg/mL
  IC80: 2.43 µg/mL
  MPI: 97
[23]
  IC50: 0.308 µg/mL
  IC80: 1.26 µg/mL
  MPI: 100

## N49P9.1 (antibody)
[4]
  IC50: 0.037 µg/mL
  IC80: 0.12 µg/mL
  MPI: 99
[33]
  IC50: 0.068 µg/mL
  IC80: 0.478 µg/mL
  MPI: 100
[34]
  IC50: 0.055 µg/mL
  IC80: 0.725 µg/mL
  MPI: 100
[15]
  IC50: 1.51 µg/mL
  IC80: 16.4 µg/mL
  MPI: 90
[23]
  IC50: 0.716 µg/mL
  IC80: 2.55 µg/mL
  MPI: 100

## N49P11 (antibody)
[2]
  IC50: 0.296 µg/mL
  IC80: 3.24 µg/mL
  MPI: 100
[27]
  IC50: 0.889 µg/mL
  IC80: 4.45 µg/mL
  MPI: 100
[28]
  IC50: 0.091 µg/mL
  IC80: 0.503 µg/mL
  MPI: 100
[29]
  IC50: 8.48 µg/mL
  IC80: 20.9 µg/mL
  MPI: 100
[30]
  IC50: 0.094 µg/mL
  IC80: 0.346 µg/mL
  MPI: 100
[31]
  IC50: 1.86 µg/mL
  IC80: 10.3 µg/mL
  MPI: 100
[19]
  IC50: 0.7 µg/mL
  IC80: 2.9 µg/mL
  MPI: 100
[32]
  IC50: 0.998 µg/mL
  IC80: 7.13 µg/mL
  MPI: 100

## N49P18.1 (antibody)
[2]
  IC50: 3.02 µg/mL
  IC80: 13.9 µg/mL
  MPI: 99
[27]
  IC50: 13.1 µg/mL
  IC80: 32.2 µg/mL
  MPI: 93
[28]
  IC50: 8.04 µg/mL
  IC80: 22.6 µg/mL
  MPI: 97
[29]
  IC50: 3.4 µg/mL
  IC80: 20.2 µg/mL
  MPI: 97
[30]
  IC50: 8.63 µg/mL
  IC80: 23.2 µg/mL
  MPI: 93
[31]
  IC50: > 50 µg/mL
  IC80: > 50 µg/mL
  MPI: 48
[19]
  IC50: > 50 µg/mL
  IC80: > 50 µg/mL
  MPI: 48
[32]
  IC50: 3.48 µg/mL
  IC80: 20.8 µg/mL
  MPI: 93

## N49P19 (antibody)
[4]
  IC50: > 50 µg/mL
  IC80: > 50 µg/mL
  MPI: 44
[33]
  IC50: 0.756 µg/mL
  IC80: 3.17 µg/mL
  MPI: 99
[34]
  IC50: 0.579 µg/mL
  IC80: 2.09 µg/mL
  MPI: 99
[15]
  IC50: 0.124 µg/mL
  IC80: 0.817 µg/mL
  MPI: 99
[23]
  IC50: 2.1 µg/mL
  IC80: 7.52 µg/mL
  MPI: 100
